According to PMC3693442 (Science (New York, N.Y.), 2013):

Molecular target: KLC2^TPR (tetratricopeptide repeat domain of kinesin light chain 2), wild type (UniProt O88448 217-426)
Assay: fluorescence polarisation

Kd [µM] | Binder
24 | TNLEWDDSAI [SKIP^WD peptide (ten amino acid long peptide centered on the WD motif of SKIP)]
> 110 | PSTDWEDGDL [SKIP^WE peptide (equivalent peptide centered on the WE motif of SKIP)]
